This passage reports EC50, saporin (Fab-ZAP) cell killing, G401 Cells, EC50, saporin (Fab-ZAP) cell killing, HEK293T Cells and elimination of BR13 and BR64 breast NTX tumor cells, antibody results from US20180162952A1.

Several values for one entry are separate records, joined by “and”; a condition that tells them apart may be missing. Identical values can stand only once.

Test [1] deals with human PTK7 on non-engineered cells (human), Q13308. The test is described as follows: cell-based or functional assay.
Test [2] deals with human PTK7 on non-engineered cells (human) (UniProt Q13308). In words: cell-based or functional assay.

B1: SC6.41 (antibody, V domains shown)
VH: EVQLQQSGAESVRSGASVKLSCTASGLNIKDYYMHWVNLRPEQGLEWIGWIDPENGDTEYAPEFQGKATMTADTSSNTAYLQLSSLTSEDTAVYYCNACNYGSAYGYWGQGTTLTVSS
VL: DIVLTQATPSVPVTPGESVSISCRSSKSLLHTKGDTYLYWFLQRPGQSPQLLIYRMSNLASGVPDRFSGSGSGTVFTLRISRVEAEDVGVYYCMQHLEYPFTFGSGTKLEIKR
In test [1], B1 gave an EC50, saporin (Fab-ZAP) cell killing, G401 Cells of 2.6 pM and an EC50, saporin (Fab-ZAP) cell killing, HEK293T Cells of 5.7 pM.

B2: SC6.24 (antibody, V domains shown)
VH: QVQLQQSGPEVVRPGVSVKISCKGSGYTFTDYAVHWVKLSHAKSLEWIGVISTYNDYTYNNQDFKGKATMTVDKSSSTAYMELARLTSEDSAIYYCARGNSYFYALDYWGQGTSVTVSS
VL: DIVLTQSPASLAVSLGQRATISCRASESVDSYGKSFMHWYQQRPGQPPKLLIYRASNLESGIPARFSGSGSRTDFTLTINPVEADDVATYYCQQSNEDPWTFGGGTKLEIK
In test [1], B2 gave an EC50, saporin (Fab-ZAP) cell killing, G401 Cells of 6.7 pM and an EC50, saporin (Fab-ZAP) cell killing, HEK293T Cells of 11 pM.

B3: SC6.23 (antibody, V domains shown)
VH: QVTLKESGPGILKPSQTLSLTCSFSGFSLSTSNMGVGWIRQPSGKGLEWLAHIWWDDDKYYNPSLKSQLTISKDTSRNQVFLKITSVDTEDTATYYCVRSNYGYAWFAYWGQGTLVTVSA
VL: DIKMTQSPSSMYASLGERVTITCKASQDIYPYLNWFQQKPGKSPKTLIYRTNRLLDGVPSRFSGSGSGQDYSLTISSLDYEDMGIYYCLQYDEFPLTFGAGTKLELK
In test [1], B3 displayed an EC50, saporin (Fab-ZAP) cell killing, G401 Cells of 2.6 pM and an EC50, saporin (Fab-ZAP) cell killing, HEK293T Cells of 3 pM.

B4: SC6.58 (antibody, V domains shown)
VH: EVKLLESGGGLVQPGGSLKLSCAASGFDFSRYWMSWVRQAPGKGLEWIGDLNPDSSAINYTPSLKDKFIISRDNAKNTLYLQMSKVRSEDTALYYCTLITTLVPYTMDFWGQGTSVTVSS
VL: ETTVTQSPASLSMAIGEKVTIRCITNTDIDDDMNWYQQKPGEPPKLLISEGNGLRPGVPSRFSSSGYGTDFVFTIENMLSEDVADYYCLQSDNLPLTFGSGTKLEIK
With B4, in test [1], the EC50, saporin (Fab-ZAP) cell killing, G401 Cells was 35.1 pM and the EC50, saporin (Fab-ZAP) cell killing, HEK293T Cells was determined as 86.8 pM.

B5: SC6.2.35 (antibody, V domains shown)
VH: QVQMQQSGAELMKPGASVKLSCKATGYTFTGYWIEWVKQRPGHGLEWIGEILPGSGRSNSNEKFKGKATFTADTSSNTAYMQLSSLTTEDSAIYYCARGKLSWGQGTLVTVSA
VL: DIVLTQSPASLAVSLGQRATISCRASESVDSFGNSFMHWYQQKPGQPPKLLIYAASNLGSGVPARFSGSGSGTDFSLNIHPVEEDDSAMYFCQQSKEVPRTFGGGSRLEIKR
Turning to B5, in test [2], the EC50, saporin (Fab-ZAP) cell killing, G401 Cells amounted to 1.1 pM; the EC50, saporin (Fab-ZAP) cell killing, HEK293T Cells stood at 0.45 pM; the elimination of BR13 and BR64 breast NTX tumor cells, antibody at 0.2 nM with Fab-ZAP is 70% and 80%.

B6: SC6.21 (antibody, V domains shown)
VH: SDVQLQESGPGLVKPSQTLSLTCSVPDYSITSDYHWHWIRQFPGNKLEWMGYISSRGSTNYNPSLKNRISITHDTSENQFFLKLTSVTTEDSATYYCAGLSQLALDYWGQGTTLTVSS
VL: DIVMSQSPSSLAVSVGEKVTLSCKSSQSLLYSSTQNNYLAWYQQTPGQSPKLLIYWASTRESGVPDRFTGSGSGTDFTLTISSVKAEDLAVYYCQQYYSYPWTFGGGTKLEIK
In the case of B6, the EC50, saporin (Fab-ZAP) cell killing, G401 Cells in test [1] amounted to 200 pM.
